Data from paper PMC9292375, “Structural basis of an epitope tagging system derived from Haloarcula marismortui bacteriorhodopsin I D94N and its monoclonal antibody GD‐26” (The Febs Journal, 2021).
Values joined by “and” are separate entries in the source; they are usually repeats but may differ in a detail not shown here. Identical values can stand only once.

Experiments:
Assay in all cases: ITC; synthetic peptide in the syringe titrated into GD-26 Fab or GD-26 IgG (10 μM) in the cell; 25 °C; 50 mM Tris, 150 mM NaCl, pH 7.5; one-set-of-sites model
Settings in all cases: both partners purified
[1] = target: T1, TD peptide M1 (Met attached to the N terminus) (Haloarcula marismortui HmBRI C-terminal …)
T1 construct: TD peptide (C terminus of HmBRI) with one Met attached before Gly1; source: synthetic peptide
T1 chain: MGTGATPADD

TD peptide A7T = target: T2, TD peptide A7T (A7T (stands in the printed letters))
T2 construct: TD peptide (C terminus of HmBRI) with A7T; numbers count on: the TD peptide; source: synthetic peptide
T2 chain: GTGATPTDD

TD peptide A7H = target: T3, TD peptide A7H (A7H (stands in the printed letters))
T3 construct: TD peptide (C terminus of HmBRI) with A7H; numbers count on: the TD peptide; source: synthetic peptide
T3 chain: GTGATPHDD

TD peptide G1M = target: T4, TD peptide G1M (G1M (stands in the printed letters))
T4 construct: TD peptide (C terminus of HmBRI) with G1M; numbers count on: the TD peptide; source: synthetic peptide
T4 chain: MTGATPADD

[2] = target: T5, TD peptide N2 (Gly1 and Thr2 deleted) (Haloarcula marismortui (strain ATCC …))
T5 construct: TD peptide residues 3-9 (Gly1 and Thr2 deleted); numbers count on: the TD peptide; source: synthetic peptide
T5 chain: GATPADD

[3] = target: T6, TD peptide (GTGATPADD), peptide V from the C terminus of HmBRI D94N (Haloarcula marismortui HmBRI C terminus …)
T6 construct: nine residues at the C terminus of Haloarcula marismortui bacteriorhodopsin I (HmBRI); residue numbers 1-9 count on: the TD peptide; also called TD tag; wild-type TD peptide; source: synthetic peptide
T6 chain: GTGATPADD

[4] = target: T6, TD peptide (GTGATPADD), peptide V from …

B1: GD-26 Fab (antigen-binding fragment of monoclonal antibody GD-26) (Fab, V domains shown)
VH: QVQLRQSGPELVKPGASVKMSCRASGYTFTNYNIHWVRQRPGQGLEWIGWIYPVDGTTKYNEKFKDKTTLTSDKSSSTAYMSLSGLTSEDSAIYFCARGLDNWGQGTSVTVSS
VL: DVVLTQTPLSLSVTIGQPASISCRSSQRLLYSNGKTYLNWFQQRPGQAPKYLMFQVSKLGPGIPARFSGSGSETDFTLKISRVEAEDLGVYYCFQGTFFPHTFGGGTKLEMK
notes: Fab heavy chain of GD-26; whole chain in PDB 7DOH; light chain of GD-26; the Fab was secreted; source: Expi293F, transient co-transfection, secreted; purified (HisTrap Excel, Superdex 200 gel filtration)
[1]
  Kd: 25.1 nM
TD peptide A7T
  Kd: 449 nM
TD peptide A7H
  Kd: 94 nM
TD peptide G1M
  Kd: 46.5 nM
[2]
  Kd: 548 nM
[3]
  Kd: 12 nM
[4]
  Kd: 19.8 nM and 19.4 nM
  dH: -13.4 kcal/mol
  stoichiometry N: 0.93 sites
